The target of assay [1] is A139 iCAPS (purified human CB1 with ICL3 native sequence replaced with BRIL, in lipid bilayer) (human) (UniProt P21554). Description: ELISA, purified IgG on CB1 iCAPS.
In assay [2] the target is A138 iCAPS (purified human CB1 with ICL3 native sequence replaced with protein 1 sequence, in lipid bilayer) (human) (UniProt P21554). Description: ELISA, purified IgG on CB1 iCAPS.

This is an account of results in US20230348589A1.

A138 iCAPS (purified human CB1 with ICL3 native sequence replaced with protein 1 sequence, in lipid bilayer) (human), sequence (P21554 whole entry): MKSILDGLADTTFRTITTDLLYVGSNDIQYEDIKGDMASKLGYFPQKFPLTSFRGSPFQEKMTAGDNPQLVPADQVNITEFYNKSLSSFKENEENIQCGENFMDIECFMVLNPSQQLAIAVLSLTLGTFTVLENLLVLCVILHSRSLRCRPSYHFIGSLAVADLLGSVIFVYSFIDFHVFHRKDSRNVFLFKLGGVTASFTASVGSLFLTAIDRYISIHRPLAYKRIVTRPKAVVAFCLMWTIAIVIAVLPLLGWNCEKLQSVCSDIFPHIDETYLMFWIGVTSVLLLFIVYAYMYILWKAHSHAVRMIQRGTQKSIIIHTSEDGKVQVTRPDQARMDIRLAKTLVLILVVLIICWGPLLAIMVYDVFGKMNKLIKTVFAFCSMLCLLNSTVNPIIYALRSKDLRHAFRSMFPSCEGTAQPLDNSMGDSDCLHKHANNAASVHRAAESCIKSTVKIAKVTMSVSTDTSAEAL
A139 iCAPS (purified human CB1 with ICL3 native sequence replaced with BRIL, in lipid bilayer) (human), sequence (P21554 whole entry): as above

B1: PA2R3-P1F1 (chimeric) (antibody, V domains shown)
VH: EVQLQQSGAELMKPGASVKISCKATGYTFSSYWIEWVKQRPGHGLEWIGEILPGSGSTNYNEKFKGKATFTADTSSNTAYMQLSSLTSEDSAVYYCARGAWLLSYWYFDVWGAGTSVTVSS
VL: DIQMMQSTSSLSASLGDRVTISCSASQGISNYLNWYQQKPDGTVKLLIYYTSSLHSGVPSRFSGSGSGTQFSLKINSLQPEDFGSYYCQHHYGTPYTFGGGTKLELKR
In the case of B1, the EC50 in assay [1] turned out to be 1.1 nM; in assay [2] it was 1.3 nM.

B2: PA2LR3-P1G6 (chimeric) (antibody, V domains shown)
VH: EVQLQQSGAELVRPGSSVKISCKASGYAFSYYWMNWVKQRPGQGLEWIGQIYPGDGDTNYNGKFKGKATLTVDKSSSTAYMQLSSLTSEDSAVYFCARSHGNYFAYWGQGTLVTVSA
VL: DIVLSQSPAIMSASLGERVTMTCTASSSVSSSYLHWYQQKPGSSPKLWIYSTSNLASGVPARFSGSGSGTSYSLTISRMEAEDAATYYCQQWSSYPLTFGAGTKLELKR
In the case of B2, the EC50 turned out to be 35 nM in assay [1] and 81 nM in assay [2].

B3: PA2LR3-P4C6 (chimeric) (antibody, V domains shown)
VH: EVQLQQSGAELVRPGSSVKISCKASGYAFSYYWMNWVKQRPGQGLEWIGQIYPGDGDTNYNGKFKGKATLTADKSSSTAYMQLSSLTSEDSAVYFCARSHGNYFPYWGQGTLVTVSA
VL: DIVITQSPAIVSASLGERVTMTCTASSSVSSSYLHWYQQKPGSSPKLWIYSTSNLASGVPARFSGSGSGTSYSLTISSMEAEDAATYYCQQWSSYPLTFGAGTKLEIKR
For the molecule B3, the EC50 in assay [1] and in assay [2] was 0.4 nM in each case.

B4: PA2LR3-P1H4 (chimeric) (antibody, V domains shown)
VH: EVQLQQSGAELVRPGSSVKISCKASGYVFGNYWMNWVKQRPGQGLEWIGQIYPGDGDTNYNGKFKGKATLTADKSSSTAYMQLSSLTSEDSAVYFCARSHGNYFPYWGQGTLVTVSA
VL: QIVLTQSPAIMSASLGERVTMTCTASSSVSSSYLHWYQQKPGSSPKLWIYSTSNLASGVPARFSGSGSGTSYSLTISSMEAEDAATYYCQQWSSYPLTFGAGTKLELKR
For B4, the EC50 is 33.5 nM in assay [1] and 21 nM in assay [2].

B5: PA2LR3-P2B8 (chimeric) (antibody, V domains shown)
VH: EVQLQQSGAELVRPGSSVKISCKASGYAFSYYWMNWVKQRPGQGLEWIGQIYPGDGDTNYNGKFKGKATLTADKSSSTAYMQLSSLTSEDSAVYFCARSHGNYFAYWGQGTLVTVSA
VL: DIVMTQSPAIMSASLGERVTMTCTASSSISSSYLHWYQQKPGSSPKLWIYSTSNLASGVPARFSGSGSGTSYSLTISSMEAEDAATYYCHQYHRSPLAFGAGTKLELKR
Consider B5, for which the EC50 worked out at 1.8 nM in assay [1] and 6.7 nM in assay [2].

B6: PA2LR3-P3B10 (chimeric) (antibody, V domains shown)
VH: EVQLQQSGAELVRPGSSVKISCKASGYAFSYYWMNWVKQRPGQGLEWIGQIYPGDGDTNYNGKFKGKATLTADKSSSTAYMQLSSLTSEDSAVYFCARSHGNYFPYWGQGTLVTVSA
VL: DIVITQSPAIVSASLGERVTMTCTASSSVSSSYLHWYQQKPGSSPKLWIYSTSNLASGVPARFSGSGSGTSYSLTISSMEAEDAATYYCQQWSSYPLTFGAGTKLEIKR
Regarding B6, the EC50 in assay [1] amounted to 0.78 nM; in assay [2], 1.4 nM.

B7: PA2LR3-P4B1 (chimeric) (antibody, human IgG1, kappa, V domains shown)
VH: EVQLQQSGAELVRPGSSVKISCKASGFAFSNYWMNWVKQRPGQGLEWIGQIYPGDGDTNFNGKFKGRAILTADISSNTAYMQLSSLTSEDSAVYFCARSHGNYFPYWGQGTLVTVSA
VL: QIVLTQSPAIMSASLGERVTMTCTASSSVSSSYLHWYQQKPGSSPKLWIYSTSNLASGVPARFSGSGSGTSYSLTISSMEAEDAATYYCHQYHRSPLTFGAGTKLELKR
In the case of B7, the EC50 in assay [1] was 1.41 nM; in assay [2], 1.28 nM.

B8: PA2LR3-P2E5 (chimeric) (antibody, V domains shown)
VH: EVQLQQSGAELVRPGSSVKISCKASGYAFRDYWMNWVKQRPGQGLEWIGQIYPGDGATNYIGKFKGKATLTADKSSSTAYMQLSSLTSEDSAVYFCARSHGNYFPYWGHGTLVTVSA
VL: QIVLTQSPAIMSASLGERVTMTCTASSSVSSSYLHWYQQKPGSSPKLWIYSTSNLASGVPARFSGSGSGTSYSLTISSMEAEDAATYYCQQWSSYPLTFGAGTKLELKR
For B8, the EC50 was determined as 3.2 nM in assay [1] and 10 nM in assay [2].

B9: PA2LR3-P2D3 (chimeric) (antibody, human IgG1, kappa, V domains shown)
VH: EVQLQQSGAELVRPGSSVKISCKASGYAFSYYWMNWVKQRPGQGLEWIGQIYPGDGDTNYNGKFKGKATLTADKSSSTAYMQLSSLTSEDSAVYFCARSHGSYFAYWGQGTLVTVSA
VL: DIELAQSPASLAVSLGQRATISCRASESVDSYGNSFMHWYQQKPGQPPKLLIYLASNLESGVPARFSGSGSRADFTLTIDPVEADDAATYYCLQYASSPPTFGAGTKLEIKR
Regarding B9, the values for the EC50 in assay [1] and in assay [2] were 2.6 nM and 4.9 nM, respectively.

B10: PA2LR3-P4G10 (chimeric) (antibody, V domains shown)
VH: EVQLQQFGAELVRPGSSVKISCKASGYAFSYYWMNWVKQRPGQGLEWIGQIYPGDGDTNYNGKFKGKATLTADKSSSTAYMQLSSLTSEDSAVYFCARSHGNYFAYWGQGTLVTVSA
VL: DIVLTQSPAIMSASLGERVTMTCTASSSVSSSYLHWYQQKPGSSPKLWIYSTSNLASGVPARFSGSGSGTSYSLTISSMEAEDAATYYCQQWSSNPLTFGAGTKLELKR
On to B10, for which the EC50 in assay [1] is 1.35 nM; in assay [2], 1.19 nM.

B11: PA2LR3-P3B8 (chimeric) (antibody, V domains shown)
VH: EVQLQQSGAELVRPGSSVKISCKASGFAFSNYWMNWVKQRPGQGLEWIGQIYPGDGDTNFNGKFKGRAILTADISSNTAYMQLSSLTSEDSAVYFCARSHGNYFPYWGQGTLVTVSA
VL: DIVMTQSPAIMSASLGERVTMTCTASSSVSSSYLHWYQQKPGSSPKLWIYGTSNLASGVPVRFSGSGSGTSYSLTISSMEAEDAATYYCQQWSSYPLTFGAGTKLELKR
In assay [2], B11 yielded an EC50 of 71 nM.
